Experimental data as given in patent US20240034813A1 (Janssen / Centocor, published 2024).

Columns and labels:
[1] = molecular target: T1, recombinant human EGFR/ErbB1/HER1 with C-terminal His tag, Cy5-labeled (human, UniProt P00533 25-645, Cy5 label (reacted with Cy5 Mono NHS Ester; sites not stated)); assay: competitive TR-FRET (Eu-amivantamab/Cy5-EGFR), EC50 ratio vs Reference Material; Ex. 2 Formulation 2 (50 mM histidine), T0, 5 C table
T1 construct: Commercial protein; also called Cy5-EGFR; Cy5-labeled EGFR antigen; not shown: C-terminal His tag
Text: (§1) In this procedure, varying concentrations of unlabeled bispecific EGFR-cMet antibody sample compete with donor fluorophore (Europium (Eu) chelate) labeled bispecific EGFR-cMet antibody for binding to an acceptor fluorophore (Cy5)-labeled EGFR antigen. Excitation of the donor fluorophore results in a transfer of energy to the bound acceptor fluorophore (FRET process). The resultant FRET is detected by emission of light at 665 nm using a microplate reader capable of measuring time-resolved fluorescence. Sample dose response curves are compared to the RM.
(§2) EGFR Binding Materials and Methods. Certified commercial EGFR, a recombinant human EGFR/ErbB1/HER1 with C-terminal His tag is reacted with certified commercial Cy5 Mono NHS Ester to produce Cy5-labeled EGFR. Validated bispecific EGFR-cMet antibody is reacted with certified commercial Europium (Eu) chelate to produce Eu-labeled bispecific EGFR-cMet antibody. […] Fluorescence is then measured by spectrophotometry at 665 nm, plotted against antibody concentration and analyzed by a four-parameter logistic model. The antibody concentration required to obtain half of the maximum fluorescence response (EC50) is determined for RM, assay control and samples. The potencies of assay control and samples are calculated based on the ratio of the sample (or control) and RM EC50 values and reported as a percentage activity relative to the RM.

[2] = molecular target: T1, recombinant human EGFR/ErbB1/HER1 with …; assay: competitive TR-FRET (Eu-amivantamab/Cy5-EGFR), EC50 ratio vs Reference Material; Ex. 2 Formulation 1 (10 mM histidine), T0, 40 C table
Text: as §1, §2

[3] = molecular target: T1, recombinant human EGFR/ErbB1/HER1 with …; assay: competitive TR-FRET (Eu-amivantamab/Cy5-EGFR), EC50 ratio vs Reference Material; Ex. 2 Formulation 3 (acetate), T0, 40 C table
Text: as §1, §2

[4] = molecular target: T2, recombinant cMet/HGFR with c-terminal His-tag, Cy5-labeled (UniProt P08581 25-932, limits assumed, Cy5 label (reacted with Cy5 Mono NHS Ester; sites not stated)); assay: competitive TR-FRET (Eu-amivantamab/Cy5-c-MET), EC50 ratio vs Reference Material; Ex. 12 drug product with rHuPH20, 0 months, 25 C table
T2 construct: Commercial protein; also called Cy5-c-MET; Cy5-labeled c-MET antigen; not shown: C-terminal His-tag
Text: as §1, with “(Cy5)-labeled c-MET” for “(Cy5)-labeled EGFR”, “the Reference Material (RM).” for “the RM.”
as §2, with “c-MET Binding” for “EGFR Binding”, “commercial cMet,” for “commercial EGFR,”, “recombinant cMet/HGFR” for “recombinant human EGFR/ErbB1/HER1”, “with c-terminal His-tag” for “with C-terminal His tag”, “Cy5-labeled c-MET.” for “Cy5-labeled EGFR.”, “produce Eu labeled” for “produce Eu-labeled”

[5] = molecular target: T2, recombinant cMet/HGFR with c-terminal …; assay: competitive TR-FRET (Eu-amivantamab/Cy5-c-MET), EC50 ratio vs Reference Material; Ex. 3 acetate formulation, 6 months at 25 C, untreated control
Text: as §1, with “(Cy5)-labeled c-MET” for “(Cy5)-labeled EGFR”, “the Reference Material (RM).” for “the RM.”
as §2, with “c-MET Binding” for “EGFR Binding”, “commercial cMet,” for “commercial EGFR,”, “recombinant cMet/HGFR” for “recombinant human EGFR/ErbB1/HER1”, “with c-terminal His-tag” for “with C-terminal His tag”, “Cy5-labeled c-MET.” for “Cy5-labeled EGFR.”, “produce Eu labeled” for “produce Eu-labeled”

[6] = molecular target: T2, recombinant cMet/HGFR with c-terminal …; assay: competitive TR-FRET (Eu-amivantamab/Cy5-c-MET), EC50 ratio vs Reference Material; Ex. 11 drug product, 1 month at 40 C
Text: as §1, with “(Cy5)-labeled c-MET” for “(Cy5)-labeled EGFR”, “the Reference Material (RM).” for “the RM.”
as §2, with “c-MET Binding” for “EGFR Binding”, “commercial cMet,” for “commercial EGFR,”, “recombinant cMet/HGFR” for “recombinant human EGFR/ErbB1/HER1”, “with c-terminal His-tag” for “with C-terminal His tag”, “Cy5-labeled c-MET.” for “Cy5-labeled EGFR.”, “produce Eu labeled” for “produce Eu-labeled”

[7] = molecular target: T1, recombinant human EGFR/ErbB1/HER1 with …; assay: competitive TR-FRET (Eu-amivantamab/Cy5-EGFR), EC50 ratio vs Reference Material; Ex. 11 drug product, 12 months at 5 C
Text: as §1, §2

[8] = molecular target: T1, recombinant human EGFR/ErbB1/HER1 with …; assay: competitive TR-FRET (Eu-amivantamab/Cy5-EGFR), EC50 ratio vs Reference Material; Ex. 11 drug product, 0 months, 25 C table
Text: as §1, §2

- EGFR Binding % activity relative to RM [1]: 103%
- EGFR Binding % activity relative to RM [2]: 103%
- EGFR Binding % activity relative to RM [3]: 103%
- cMET Binding activity relative to Reference Material (%) [4]: 91%
- cMET Binding % activity relative to RM [5]: 99%
- cMET Binding activity relative to Reference Material (%) [6]: 84%
- EGFR Binding activity relative to Reference Material (%) [7]: 86%
- EGFR Binding activity relative to Reference Material (%) [8]: 89%
B1: amivantamab (bispecific antibody, human IgG1, kappa)
heavy 1: not shown
light 1: not shown
heavy 2: not shown
light 2: DIQMTQSPSSVSASVGDRVTITCRASQGISNWLAWFQHKPGKAPKLLIYAASSLLSGVPSRFSGSGSGTDFTLTISSLQPEDFATYYCQQANSFPITFGQGTRLEIKRTVAAPSVFIFPPSDEQLKSGTASVVCLLNNFYPREAKVQWKVDNALQSGNSQESVTEQDSKDSTYSLSSTLTLSKADYEKHKVYACEVTHQGLSSPVTKSFNRGEC
notes: The samples tested were high concentration (160 mg/mL) formulations, fresh or stored or stressed; also called JNJ-61186372; bispecific EGFR-cMet antibody
